Source: patent US10442868B2, “Treating hepatitis B virus infections by administering receptor associated protein (RAP)” (Rhode Island Hospital, A Lifespan-Partner, priority 2013, dated 2019)

B1: GST-RAP: GST fusion form of RAP tested in HepaRG HBV infection (protein)
chain: YSREKNQPKPSPKRESGEEFRMEKLNQLWEKAQRLHLPPVRLAELHADLKIQERDELAWKKLKLDGLDEDGEKEARLIRNLNVILAKYGLDGKKDARQVTSNSLSGTQEDGLDDPRLEKLWHKAKTSGKFSGEELDKLWREFLHHKEKVHEYNVLLETLSRTEEIHENVISPSDLSDIKGSVLHSRHTELKEKLRSINQGLDRLRRVSHQGYSTEAEFEEPRVIDLWDLAQSANLTDKELEAFREELKHFEAKIEKHNHYQKQLEIAHEKLRHAESVGDGERVSRSREKHALLEGRTKELGYTVKKHLQDLSGRISRARHNEL
modifications: left off: a dimerising Fc or GST
notes: GST fusion form of RAP tested in HepaRG HBV infection
B2: RAP: Receptor associated protein, chaperone binding LRP and other LDLR family members; universal inhibitor of the LDLR protein family (SEQ ID NO:6) (protein)
chain: MAPRRVRSFLRGLPALLLLLLFLGPWPAASHGGKYSREKNQPKPSPKRESGEEFRMEKLNQLWEKAQRLHLPPVRLAELHADLKIQERDELAWKKLKLDGLDEDGEKEARLIRNLNVILAKYGLDGKKDARQVTSNSLSGTQEDGLDDPRLEKLWHKAKTSGKFSGEELDKLWREFLHHKEKVHEYNVLLETLSRTEEIHENVISPSDLSDIKGSVLHSRHTELKEKLRSINQGLDRLRRVSHQGYSTEAEFEEPRVIDLWDLAQSANLTDKELEAFREELKHFEAKIEKHNHYQKQLEIAHEKLRHAESVGDGERVSRSREKHALLEGRTKELGYTVKKHLQDLSGRISRARHNEL
modifications: human receptor associated protein (RAP)
B3: Pseudomonas exotoxin (protein)
chain: AEEAFDLWNECAKACVLDLKDGVRSSRMSVDPAIADTNGQGVLHYSMVLEGGNDALKLAIDNALSITSDGLTIRLEGGVEPNKPVRYSYTRQARGSWSLNWLVPIGHEKPSNIKVFIHELNAGNQLSHMSPIYTIEMGDELLAKLARDATFFVRAHESNEMQPTLAISHAGVSVVMAQAQPRREKRWSEWASGKVLCLLDPLDGVYNYLAQQRCNLDDTWEGKIYRVLAGNPAKHDLDIKPTVISHRLHFPEGGSLAALTAHQACHLPLETFTRHRQPRGWEQLEQCGYPVQRLVALYLAARLSWNQVDQVIRNALASPGSGGDLGEAIREQPEQARLALTLAAAESERFVRQGTGNDEAGAASADVVSLTCPVAAGECAGPADSGDALLERNYPTGAEFLGDGGDISFSTRGTQNWTVERLLQAHRQLEERGYVFVGYHGTFLEAAQSIVFGGVRARSQDLDAIWRGFYIAGDPALAYGYAQDQEPDARGRIRNGALLRVYVPRSSLPGFYRTGLTLAAPEAAGEVERLIGHPLPLRLDAITGPEEEGGRLETILGWPLAERTVVIPSAIPTDPRNVGGDLDPSSIPDKEQAISALPDYASQPGKPPREDLK

Key:
[1] = system: HBV; assay: HBV infection of differentiated HepaRG cells with RAP or GST-RAP, secreted HBsAg by ELISA; type: cell-based; settings: overnight with HBV inoculum and increasing concentrations, HBsAg measured 10 days later
Experimental: Differentiated HepaRG cells (4×10^4), which are susceptible to HBV infection (Gripon et al., Proc Natl Acad Sci USA 99:15655-60, 2002), were incubated overnight with HBV inoculum in the presence or absence of increasing concentrations of RAP or GST-RAP, and washed extensively to remove unbound HBV virions and HBsAg. Medium was changed every 2-3 days. HBsAg level in culture supernatant was measured 10 days later (at this point there was no more residual HBsAg from the inoculum, and signals detected reflect newly synthesized and secreted proteins). The level of HBsAg secreted into the culture supernatant was determined by an ELISA assay using a commercially available kit (e.g., Novus Biologicals, NEO BioLab, Cusabio Biotech Co., Ltd.). Briefly, culture medium was added to wells containing capture antibody (anti-HBsAg), followed by incubation at 37° C. for 30 min. After washing with provided washing buffer, conjugate (anti-HBsAg conjugated with HRP) was added followed by incubation at 37° C. for 30 min.

[2] = system: differentiated HepaRG cells; assay: Killing of differentiated HepaRG cells by LRP-utilizing toxin, trypan blue staining; type: cell-based, human; settings: 500 ng/ml, 37° C. overnight, low dose
Experimental: Hepatocytes are polarized. LRP is distributed at the basolateral side rather than apical side of hepatocytes (Marzolo et al., Traffic 4:273-88, 2003) consistent with HBV infection from the bloodstream. It was recently reported that HBV preferentially infects hepatocytes near the edge of hepatocyte islands (Schulze et al., Hepatology 55:373-83, 2012). […] Differentiated HepaRG cells were untreated (left panel) or incubated with pseudomonas exotoxin A (500 ng/ml) at 37° C. overnight (right panel), and stained with 0.04% trypan blue to reveal dead (blue) cells under microscopy. The dead cells were mainly located at the periphery of hepatocyte islands, which are also most susceptible to HBV infection.

Molecule	HBsAg secretion to culture supernatant (HBV infectivity) [1]	cell killing (trypan blue dead cells) [2]
B1	dose-dependent reduction of HBsAg secretion	–
B2	dose-dependent reduction of HBsAg secretion	–
B3	–	selectively killed cells in the periphery of hepatocyte islands
